Ends that are not written are not given here. * marks the point of attachment. Biotin = O=C1N[C@H]2[C@H](CS[C@H]2CCCCC(=O)*)N1
T1: human Fn14 (human, UniProt Q9NP84 28-129)
T1 sequence: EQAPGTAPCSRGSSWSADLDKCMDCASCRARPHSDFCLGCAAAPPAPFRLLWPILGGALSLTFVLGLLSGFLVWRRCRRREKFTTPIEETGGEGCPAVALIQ

T2: synthetic peptide hFn14 sub-domain 3 (human, cysteine pairing not given here)
T2 construct: also called sub-domain 3 peptide
T2 peptide: ASCRARPHSDFCLGK(Biotin)

B1: CRCBT-06-001 (antibody, IgG2b, V domains shown)
VH: QVQLQQSGGGLVQPGGSMKLSCIASGFTFSSYWMSWVRQSPEKGLEWVAEIRSKSDNYATHYAESVKGKFTISRDDSKSRFFLQMNNLRAEDTGIYYCSSTYADYFHYWGQGTDLTVSS
VL: DIVMTQTPASLAVSLGQRATISCRASQSVSTSTYSYMHWYQQKPGQPPKLLIKYASSLESGVPARFSGSGSGTDFTLNIHPVEEDDTATYYCQHSWEIPYTFGGGTKLEIKR
B2: CRCBT-06-002 (antibody, IgG1, V domains shown)
VH: EVKLQQSGGGLVQPGGSMKLSCVASGFTFSYYWMNWVRQSPEQGLEWIAEIRLQSNDYPTHYAESVKGRFTISRDDSKNSVYLQMNNLRPEDTGIYYCACRYADYFDHWGQGTTLTVSS
VL: DTVLTQSPASLVVSLGQRATISCRASQSVSTSDYSYIHWYQQKPGQPPKFLIKYASNRDSGVPARFSGSGSGTDFTLNIHPVEEDDTAIYYCQHSWEIPPTFGAGTKLELQR

Columns and labels:
human Fn14 = biological target: T1, human Fn14; test: cell-based or functional assay
[1] = biological target: T2, synthetic peptide hFn14 sub-domain 3; test: ELISA on biotinylated sub-domain 3 peptide, mAb at 0.2 ug/ml
Description: An additional lysine residue was added to the C-terminus in order to attach a biotin moiety and to enable the peptides to bind to neutravidin coated plates (Pre-blocked; Pierce). For these experiments, a control peptide with a biotin at the C-terminus was used as a negative control and isotype control antibodies were also used.
The ELISA was performed essentially according to the manufacturer's recommended protocol (Pierce). Briefly, peptide was coated onto wells (in duplicate) at 1-10 μg/ml for 2 hours at room temperature. Wells were washed in PBS/0.05% Tween 20/0.1% BSA 3 times and dilutions of each antibody were added in wash buffer for 1 hour with gentle agitation. After another three washes anti-mouse HRP-conjugated to horse radish peroxidase (HRP; Chemicon) was added at 1/1000 dilution for 1 hour shaking. Finally, after 4 further washes the plate was developed using TMB (3,3′,5,5′-tetramethylbenzidine) substrate (Pierce), and the reaction was stopped using 2M H2SO4 solution. Optical density at 450 nm was quantified using a Spectromax absorbance spectrophotometer.
The reactivity of CRCBT-06-001 CRCBT-06-002, CRCBT-06-003, CRCBT-06-004, CRCBT-06-005, CRCBT-06-006 and CRCBT-06-007 with sub-domain 3 was lower than for sub-domain 2, indicating this region may be a partial epitope for these antibodies. However, the differences in binding to this region could reveal subtle variations in the contact regions of the antibodies with hFn14. The order of binding from strongest to weakest was CRCBT-06-005, CRCBT-06-002, CRCBT-06-001, CRCBT-06-006, CRCBT-06-007 and ITEM-1. The relative binding of each antibody to sub-domain 3 at a single point in the linear region of the curves was measured at 0.2 µg/ml (FIG. 21C). […] This could indicate the epitope of ITEM-1 may differ slightly to the CRCBT antibodies based on weaker interaction with surface exposed residues in sub-domain 3.

[2] = biological target: phage expressed hFn14 mutant R58A (human, UniProt Q9NP84 28-77); test: phage ELISA (Method 2), antibody on plate, phage dilution 1/X on the x axis
From the text: FIG. 26 is a graphical representation showing results of an ELISA testing the reactivity of mutant hFn14 phage construct comprising a R58A mutation with the anti-Fn14 monoclonal antibodies CRCBT-06-001, CRCBT-06-002, CRCBT-06-004 compared to ITEM-1 and ITEM-4. Binding was detected using Biotin-conjugated anti-M13-phage monoclonal antibody followed by HRP-conjugated Streptavidin and TMB substrate. Optical density at 450 nm was quantified using a Spectramax spectrophotometer. Error bars for each dilution represent the standard deviation of duplicate assays. X axis=dilution of phage. Methods according to Epitope mapping using phage expressed Fn14—Method 2
The wells of Maxisorp immunoplates (Nunc) were coated overnight at 4° C. with the target monoclonal antibodies or recombinant Tweak-Fc at a concentration of 1.5 μg/ml in PBS. mAb 5G8 was used as a negative control for ELISA plates coated with tested antibodies. […] 10-fold serial dilutions of phage were made using PBS solution and phage dilutions were added to the coated, blocked ELISA plates for 1 hour, shaking at room temperature. […]
Method A: HRP-conjugated anti-M13-phage antibody (GE Healthcare) at a 1/5000 dilution in PBS was then added to the wells of the ELISA plates for 1 hour, shaking at room temperature. […] Optical density at 450 nm was quantified using a Spectramax absorbance spectrophotometer.

[3] = biological target: T3, His tagged hFn14 extracellular region mutant R56A (human, UniProt Q9NP84 28-77); test: ELISA with purified His-tagged hFn14 R56A; x axis 'Log (c)' without unit, µg/ml by the legend
T3 construct: not shown: (His)6 tag

[4] = biological target: phage-displayed hFn14 mutant T33N (human, UniProt Q9NP84 28-77); test: phage ELISA, antibody on plate
[5] = biological target: phage-displayed hFn14 mutant A34S (human, UniProt Q9NP84 28-77); test: phage ELISA, antibody on plate
[6] = biological target: phage-displayed hFn14 mutant R38S (human, UniProt Q9NP84 28-77); test: phage ELISA, antibody on plate
[7] = biological target: phage-displayed hFn14 mutant R56P (human, UniProt Q9NP84 28-77); test: phage ELISA, antibody on plate
[8] = biological target: phage-displayed hFn14 mutant L77M (human, UniProt Q9NP84 28-76); test: phage ELISA, antibody on plate
Chain of phage-displayed hFn14 mutant L77M (Q9NP84 28-77 L77M): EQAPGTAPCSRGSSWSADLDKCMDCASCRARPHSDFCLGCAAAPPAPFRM

T3 sequence (Q9NP84 28-77 R56A): as the sequence (Q9NP84 28-77 L77M) above, with R29A, M50L counted along it
Chain of phage-displayed hFn14 mutant T33N (Q9NP84 28-77 T33N): as the sequence (Q9NP84 28-77 L77M) above, with T6N, M50L counted along it
Chain of phage-displayed hFn14 mutant A34S (Q9NP84 28-77 A34S): as the sequence (Q9NP84 28-77 L77M) above, with A7S, M50L counted along it
Chain of phage-displayed hFn14 mutant R56P (Q9NP84 28-77 R56P): as the sequence (Q9NP84 28-77 L77M) above, with R29P, M50L counted along it
Chain of phage-displayed hFn14 mutant R38S (Q9NP84 28-77 R38S): as the sequence (Q9NP84 28-77 L77M) above, with R11S, M50L counted along it

Binder | % Agonist, IL-8 secretion by A375 cells (human Fn14) [%] | % decrease in binding compared with CRCBT-06-005 [1] [%] | binding result [2] | binding result [3] | % Antagonist, IL-8 secretion by A375 cells (human Fn14) [%] | binding result [4] | binding result [5] | binding result [6] | binding result [7] | binding result [8]
B1 | 128 | 60 | binds | binds | – | – | – | – | – | –
B2 | 11 | 43 | binds | binds | 94 | binds | binds | binds | binds | binds

From US20200239586A1 (LA TROBE UNIVERSITY, published 2020)
